The values that follow come from patent US20230270877A1 (Seagen, published 2023).

The assay concerns the target T1, human FcγRIIIa (human, UniProt P08637 17-254).
T1 construct: whole, on cells
The experiment in a line: flow cytometry on CHO cells transfected with human FcγRIIIa, PE anti-human IgG Fc secondary, GEO mean fluorescence. (In general: Flow cytometry measures light scatter and fluorescence of single cells or particles in a stream.)

T1 sequence (P08637 17-254): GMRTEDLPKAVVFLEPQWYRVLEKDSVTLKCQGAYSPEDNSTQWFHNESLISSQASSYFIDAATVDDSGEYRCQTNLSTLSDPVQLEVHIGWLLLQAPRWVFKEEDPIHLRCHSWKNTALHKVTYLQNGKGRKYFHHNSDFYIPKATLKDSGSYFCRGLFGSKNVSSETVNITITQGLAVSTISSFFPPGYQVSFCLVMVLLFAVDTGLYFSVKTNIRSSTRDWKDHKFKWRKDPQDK

B1: SEA-CD40 (nonfucosylated hS2C6) (antibody, human IgG1, kappa)
heavy: not shown
light: DIQMTQSPSSLSASVGDRVTITCRSSQSLVHSNGNTFLHWYQQKPGKAPKLLIYTVSNRFSGVPSRFSGSGSGTDFTLTISSLQPEDFATYFCSQTTHVPWTFGQGTKVEIKRTVAAPSVFIFPPSDEQLKSGTASVVCLLNNFYPREAKVQWKVDNALQSGNSQESVTEQDSKDSTYSLSSTLTLSKADYEKHKVYACEVTHQGLSSPVTKSFNRGEC
notes: also called nonfucosylated humanized S2C6
One may read the EC50 (read off the curve) as the concentration giving half of the maximal effect. A higher EC50 (read off the curve) goes with weaker potency. For B1, the “EC50 (read off the curve)” value is roughly 1 µg/mL.
